In this test the target is T1, his-tagged PXRLBD (residues 130-434) (human, UniProt O75469 130-434).
T1 sequence (looked up): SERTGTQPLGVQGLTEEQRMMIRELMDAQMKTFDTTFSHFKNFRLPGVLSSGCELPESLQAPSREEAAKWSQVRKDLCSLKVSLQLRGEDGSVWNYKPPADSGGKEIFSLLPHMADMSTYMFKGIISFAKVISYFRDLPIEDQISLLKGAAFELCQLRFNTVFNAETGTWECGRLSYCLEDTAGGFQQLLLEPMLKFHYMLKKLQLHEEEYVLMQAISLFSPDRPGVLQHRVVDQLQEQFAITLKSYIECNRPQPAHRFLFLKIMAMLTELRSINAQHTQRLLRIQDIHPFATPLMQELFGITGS
Description: pull-down.

B1: SRC186 (human SRC-1 fragment, residues 595-780) (domain or fragment, UniProt Q15788 595-780, looked up)
chain: MIQSDNSSSDGKPLDSGLLHNNDRLSDGDSKYSQTSHKLVQLLTTTAEQQLRHADIDTSCKDVLSCTGTSNSASANSSGGSCPSSHSSLTERHKILHRLLQEGSPSDITTLSVEPDKKDSASTSVSVTGQVQGNSSIKLELDASKKKESKDHQLLRYLLDKDEKDLRSTPNLSLDDVKVKVEKKEQ
modifications: biotin (labeled with biotin reagent)
Regarding B1, the binding result is on record as “binds”.

The values are drawn from article PMC8978339 (Cancer chemotherapy and pharmacology, 2021).
